Results as given in US20170173105A1, “AUTOASSEMBLING PEPTIDES FOR THE TREATMENT OF PULMONARY LEAKAGE” (3-D MATRIX, LTD., priority 2014, published 2017).

Key:
[1] = Appearance of 1.5% peptide solutions with various salts at room temperature; type: physicochemical; details: for Appearance: KLD12 solution, room temperature
Description: The effect of salt ionic strength level on the properties of peptide solutions was evaluated to identify optimized salt ionic strength levels for the peptides as described herein. Increasing the salt ionic strength level of PuraMatrix® and other peptides may generally improve its function and mechanical strength for various clinical applications. To adjust the salt ionic strength of the peptide solutions by way of example, various salt buffer solutions including NaCl, KCl, MgCl2, CaCl2 and DPBS (10×) were added to 2 mL of 1.5% peptide solutions.

[2] = Rheological properties of peptide solutions and hydrogels after salt ionic strength adjustment; type: physicochemical
Description: Based on the visual observation of the effect of salt ionic strength on the properties of the peptide solutions, the effect on the rheological properties of the peptide solutions after adjusting their ionic strength level with NaCl to 0.7 M (PuraMatrix®), 0.2 M (KLD12) or 0.02 M (IEIK13), which is closely below the critical ionic strength at which each peptide becomes cloudy, was evaluated. If the ionic strength levels with NaCl of peptide solutions are higher than 0.9 M (PuraMatrix®), 0.3 M (KLD12) or 0.03 M (IEIK13), the peptide solution begin phase separation becoming cloudy and weak. The rheological property of PuraMatrix®, KLD12 and IEIK13 solutions was higher after adjusting their ionic strength level with NaCl to 0.7 M (PuraMatrix®), 0.2 M (KLD12) or 0.02 M (IEIK13), The results are shown in FIG. 10 for KLD12 1%, FIG. 11 for IEIK13 1%, and FIG. 12 for PuraMatrix® 1%, respectively. Frequency sweep tests were performed from 1 rad/s to 10 rad/s at 1 Pa.
Based on the results of the effect on the rheological properties of the peptide solutions after adjusting their ionic strength level with NaCl to 0.7 M (PuraMatrix®), 0.2 M (KLD12) or 0.02 M (IEIK13), the effect on the rheological properties of the peptide solution at various salt ionic strengths was evaluated. […] The results are shown in FIG. 13 for PuraMatrix® 1% solution and in FIG. 14 for IEIK13 1% solution. Frequency sweep tests were performed from 1 rad/sec to 10 rad/sec at 1 Pa and the storage modulus at 1 rad/sec was selected for data.
Based on the results of the effect on the rheological properties of the peptide solutions after adjusting their ionic strength levels, the effect on the rheological properties of the peptide hydrogels after DMEM treatment for 10 min was evaluated. […] The results are shown in FIG. 15 for PuraMatrix® 1% hydrogels and in FIG. 16 for IEIK13 1% hydrogels, both after DMEM treatment for 10 min Frequency sweep tests were performed from 1 rad/sec to 10 rad/sec at 1 Pa and the storage modulus at 1 rad/sec was selected for data.
Based on the results of the effect on the rheological properties of the peptide solutions and hydrogels after adjusting their ionic strength levels with NaCl, the effect of various salts (KCl, MgCl2, and CaCl2) was also evaluated. The rheological property of PuraMatrix® solutions increases with ionic strength adjustment at 0.15 M of all the salts. Increases of the rheological property of PuraMatrix® solutions with various salts were not predominantly different. However, increases of the rheological property of PuraMatrix® solutions may vary depending on the salting out constant, K of each salt. Constant K is a constant in Cohen's equation: log S=B−KI, where S is solubility, B is idealized solubility, K is salting out constant, and I is ionic strength. With a higher value of constant K and ionic strength of salts, solubility of the peptide may decrease resulting in strong peptide self-assembly with increased hydrophobic effect and higher rheological properties of the peptide solution. The constant K of NaCl may be higher than the other salts. […] The results are shown in FIG. 17 for PuraMatrix® 1% solution before DMEM treatment, and in FIG. 18 for PuraMatrix® 1% hydrogels after DMEM treatment for 10 min.
In accordance with one or more embodiments, IEIK13, KLD12, and PuraMatrix® may be dissolved both in salt buffer such as NaCl and at an elevated pH level adjusted with alkali salt buffer such as NaOH to keep their salt ionic strength under their critical salt points as well as their pH level to about 2.5˜4.0, so that they may have stiffer properties. With respect to PuraMatrix®, […] and IEIK13, the peptide solutions are still clear with 0.9% NaCl (ionic strength: 0.15 M) at pH 3.4 adjusted with NaOH. […] The effect of salt ionic strength and pH adjustment on the rheological properties of PuraMatrix® 2.5% solution are shown in FIG. 20. […]

Substance: Lys-Leu-Asp-Leu-Lys-Leu-Asp-Leu-Lys-Leu-Asp-Leu (Ac-KLDLKLDLKLDL-NH2) [KLD12]
- Appearance ([1]; CaCl2 0 M, ionic strength 0 M, conc. 1.5%): Clear, thick gel
- Appearance ([1]; CaCl2 0.05 M, ionic strength 0.15 M, conc. 1.48%): Clear, thick, stiffer gel
- Appearance ([1]; CaCl2 0.067 M, ionic strength 0.2 M, conc. 1.47%): Clear, thick, stiffer gel
- Appearance ([1]; CaCl2 0.083 M, ionic strength 0.25 M, conc. 1.46%): Clear, thick, stiffer gel
- Appearance ([1]; CaCl2 0.1 M, ionic strength 0.3 M, conc. 1.45%): Clear, thick, stiffer gel
- Appearance ([1]; CaCl2 0.117 M, ionic strength 0.35 M, conc. 1.44%): Clear, thick, stiffer gel
- Appearance ([1]; CaCl2 0.133 M, ionic strength 0.4 M, conc. 1.43%): Slightly cloudy, thick, stiffer gel
- Appearance ([1]; CaCl2 0.15 M, ionic strength 0.45 M, conc. 1.43%): Slightly cloudy, brittle gel
- Appearance ([1]; CaCl2 0.167 M, ionic strength 0.5 M, conc. 1.42%): Cloudy, phase-separated
- Appearance ([1]; KCl 0 M, ionic strength 0 M, conc. 1.5%): Clear, thick gel
- Appearance ([1]; KCl 0.05 M, ionic strength 0.5 M, conc. 1.48%): Clear, thick, stiffer gel
- Appearance ([1]; KCl 0.1 M, ionic strength 0.1 M, conc. 1.45%): Clear, thick, stiffer gel
- Appearance ([1]; KCl 0.15 M, ionic strength 0.15 M, conc. 1.43%): Clear, thick, stiffer gel
- Appearance ([1]; KCl 0.2 M, ionic strength 0.2 M, conc. 1.4%): Clear, thick, stiffer gel
- Appearance ([1]; KCl 0.25 M, ionic strength 0.25 M, conc. 1.38%): Clear, thick, stiffer gel
- Appearance ([1]; KCl 0.3 M, ionic strength 0.3 M, conc. 1.35%): Slightly cloudy, thick, stiffer gel
- Appearance ([1]; KCl 0.35 M, ionic strength 0.35 M, conc. 1.32%): Slightly cloudy, brittle gel
- Appearance ([1]; KCl 0.4 M, ionic strength 0.4 M, conc. 1.3%): Cloudy, phase-separated
- Appearance ([1]; MgCl2 0 M, ionic strength 0 M, conc. 1.5%): Clear, thick gel
- Appearance ([1]; MgCl2 0.05 M, ionic strength 0.15 M, conc. 1.48%): Clear, thick, stiffer gel
- Appearance ([1]; MgCl2 0.067 M, ionic strength 0.2 M, conc. 1.47%): Clear, thick, stiffer gel
- Appearance ([1]; MgCl2 0.083 M, ionic strength 0.25 M, conc. 1.46%): Clear, thick, stiffer gel
- Appearance ([1]; MgCl2 0.1 M, ionic strength 0.3 M, conc. 1.45%): Clear, thick, stiffer gel
- Appearance ([1]; MgCl2 0.117 M, ionic strength 0.35 M, conc. 1.44%): Clear, thick, stiffer gel
- Appearance ([1]; MgCl2 0.133 M, ionic strength 0.4 M, conc. 1.43%): Slightly cloudy, thick, stiffer gel
- Appearance ([1]; MgCl2 0.15 M, ionic strength 0.45 M, conc. 1.43%): Slightly cloudy, brittle gel
- Appearance ([1]; MgCl2 0.167 M, ionic strength 0.5 M, conc. 1.42%): Cloudy, phase-separated
- Appearance ([1]; NaCl 0 M, ionic strength 0 M, conc. 1.5%): Clear, thick gel
- Appearance ([1]; NaCl 0.05 M, ionic strength 0.5 M, conc. 1.48%): Clear, thick, stiffer gel
- Appearance ([1]; NaCl 0.1 M, ionic strength 0.1 M, conc. 1.45%): Clear, thick, stiffer gel
- Appearance ([1]; NaCl 0.15 M, ionic strength 0.15 M, conc. 1.43%): Clear, thick, stiffer gel
- Appearance ([1]; NaCl 0.2 M, ionic strength 0.2 M, conc. 1.4%): Clear, thick, stiffer gel
- Appearance ([1]; NaCl 0.25 M, ionic strength 0.25 M, conc. 1.38%): Clear, thick, stiffer gel
- Appearance ([1]; NaCl 0.3 M, ionic strength 0.3 M, conc. 1.35%): Slightly cloudy, thick, stiffer gel
- Appearance ([1]; NaCl 0.35 M, ionic strength 0.35 M, conc. 1.32%): Slightly cloudy, brittle gel
- Appearance ([1]; NaCl 0.4 M, ionic strength 0.4 M, conc. 1.3%): Cloudy, phase-separated
- apparent stiffness on salt ionic strength increase ([1]; up to the ionic strength at which solutions stay clear): increased
- appearance of peptide solutions with salt and pH adjustment ([2]; 0.9% NaCl (ionic strength: 0.15 M) at pH 3.4 adjusted with NaOH): still clear
- ionic strength level with NaCl at which the peptide solution begins phase separation becoming cloudy and weak ([2]; NaCl): > 0.3 M
- rheological property of solutions after ionic strength adjustment with NaCl ([2]; NaCl to 0.7 M (PuraMatrix®), 0.2 M (KLD12) or 0.02 M (IEIK13), 1% solutions): higher
